The source of these data is paper PMC3323580, “Lack of Evidence from Studies of Soluble Protein Fragments that Knops Blood Group Polymorphisms in Complement Receptor-Type 1 Are Driven by Malaria” (PLoS ONE, 2012).

This experiment deals with T1, C1q, classical complement pathway protein (UniProt P02745 23-245; P02746 28-253; P02747 29-245).
T1 construct: Amine-coupled to a CM5 chip for SPR; in solution (140 ng/ml) for ELISA; source: bought: Complement Technology (Texas)
Kind of experiment: SPR; C3b (1620 RU), C4b (1518 RU) and C1q (2125 RU) amine-coupled on three flow cells of one CM5 chip; CR1 fragments flowed at 30 µl/min, Biacore T100, 25°C, HBS-EP pH 7.4 (10 mM Hepes, 150 mM saline, 3 mM EDTA, 0.05% polysorbate 20); steady-state fit, one-to-one model; duplicates. To be noted: both partners purified.

T1 sequence (P02745 23-245, chain 1 of 3): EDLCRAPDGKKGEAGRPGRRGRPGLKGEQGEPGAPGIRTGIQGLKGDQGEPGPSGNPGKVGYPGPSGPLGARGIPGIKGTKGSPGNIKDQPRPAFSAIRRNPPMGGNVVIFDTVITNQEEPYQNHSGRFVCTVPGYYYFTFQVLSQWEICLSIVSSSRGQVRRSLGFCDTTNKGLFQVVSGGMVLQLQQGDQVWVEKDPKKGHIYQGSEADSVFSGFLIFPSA
T1 sequence (P02746 28-253, chain 2 of 3): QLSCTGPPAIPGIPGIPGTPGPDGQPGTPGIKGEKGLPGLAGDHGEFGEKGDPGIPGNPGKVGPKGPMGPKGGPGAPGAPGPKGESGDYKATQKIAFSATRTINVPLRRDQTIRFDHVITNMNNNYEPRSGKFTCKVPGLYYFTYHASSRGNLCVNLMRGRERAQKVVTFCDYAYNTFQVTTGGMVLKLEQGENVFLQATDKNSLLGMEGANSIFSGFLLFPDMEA
T1 sequence (P02747 29-245, chain 3 of 3): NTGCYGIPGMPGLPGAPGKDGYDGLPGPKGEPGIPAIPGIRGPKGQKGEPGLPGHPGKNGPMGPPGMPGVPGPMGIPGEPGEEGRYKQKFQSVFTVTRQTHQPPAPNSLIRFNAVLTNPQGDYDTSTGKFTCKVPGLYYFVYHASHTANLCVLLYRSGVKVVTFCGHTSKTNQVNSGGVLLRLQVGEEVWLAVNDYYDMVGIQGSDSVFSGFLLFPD

B1: soluble CR1 (sCR1), full-length ectodomain of complement receptor-type 1 (receptor)
chain: not shown
notes: complement receptor-type 1 (CR1, CD35), human, soluble full-length ectodomain; also called full-length sCR1; source: a gift from Henry Marsh, Celdex Pharmaceuticals
For orientation: Kd means the constant that tells how readily two partners part at equilibrium. B1 had a Kd of 8 ± 1 µM.
